# B1: DNCR2-casp-9: caspase-9 fused to DNCR2 (protein)
# chain: MSSDEEEARELIERAKEAAERAQEAAERTGDPRVRELARELKRLAQEAAEEVKRDPSSSDVNEALKLIVEAIEAAVDALEAAERTGDPEVRELARELVRLAVEAAEEVQRNPSSSDVNEALHSIVYAIEAAIFALEAAERTGDPEVRELARELVRLAVEAAEEVQRNPSSRNVEHALMRIVLAIYLAEENLREAEESGDPEKREKARERVREAVERAEEVQRDPSGWLNHSGSASGSGGFGDVGALESLRGNADLAYILSMEPCGHCLIINNVNFCRESGLRTRTGSNIDCEKLRRRFSSLHFMVEVKGDLTAKKMVLALLELAQQDHGALDCCVVVILSHGCQASHLQFPGAVYGTDGCPVSVEKIVNIFNGTSCPSLGGKPKLFFIQACGGEQKDHGFEVASTSPEDESPGSNPEPDATPFQEGLRTFDQLAAISSLPTPSDIFVSYSTFPGFVSWRDPKSGSWYVETLDDIFEQWAHSEDLQSLLLRVANAVSVKGIYKQMPGCFNFLRKKLFFKTSGSGATNFSLLKQAGDVEENPG
# B2: hexamer-NS3a: NS3a fused to C-terminus of designed homo-oligomeric helical bundle, hexamer (SEQ ID NO: 43) (protein)
# chain: MTEDEIRKLRKLLEEAEKKLKKLEDKTRRSEEISKTDDDPKAQSLQLIAESLMLIAESLLIIAISLLLSSRNGSASGSASMKKKGSVVIVGRINLSGDTAYSQQTRGLEGCQETSQTGRDKNQVEGEVQVVSTATQSFLATSINGVLWTVYHGAGTRTIASPKGPVTQMYTNVDKDLVGWQAPQGSRSLTPCTCGSSDLYLVTRHADVIPVRRRGDSRGSLLSPRPISYLKGSAGGPLLCPAGHAVGIFRAAVSTRGVAKAVDFIPVESLETTMRSP
# B3: D9: minimized version of DNCR2 fused to caspase-9 (protein)
# chain: MELEEVLKDLEEALERLRNEELRRLIEEIAELLRRRDDHSIIYMIEALIFVIEAVERTGDERIEKLLEELIKRIRNGDDDSAIMRIVLAVYLIEENLRESGSASGSGGFGDVGALESLRGNADLAYILSMEPCGHCLIINNVNFCRESGLRTRTGSNIDCEKLRRRFSSLHFMVEVKGDLTAKKMVLALLELAQQDHGALDCCVVVILSHGCQASHLQFPGAVYGTDGCPVSVEKIVNIFNGTSCPSLGGKPKLFFIQACGGEQKDHGFEVASTSPEDESPGSNPEPDATPFQEGLRTFDQLAAISSLPTPSDIFVSYSTFPGFVSWRDPKSGSWYVETLDDIFEQWAHSEDLQSLLLRVANAVSVKGIYKQMPGCFNFLRKKLFFKTS
# B4: dimer-NS3a: NS3a fused to C-terminus of designed homo-oligomeric helical bundle, dimer (SEQ ID NO: 42) (protein)
# chain: MTRTEIIRELERSLREQEELAKRLKELLRELERLQREGSSDEDVRELLREIKELVEEIEKLAREQKYLVEELKRQDGSASGSASMKKKGSVVIVGRINLSGDTAYSQQTRGLEGCQETSQTGRDKNQVEGEVQVVSTATQSFLATSINGVLWTVYHGAGTRTIASPKGPVTQMYTNVDKDLVGWQAPQGSRSLTPCTCGSSDLYLVTRHADVIPVRRRGDSRGSLLSPRPISYLKGSAGGPLLCPAGHAVGIFRAAVSTRGVAKAVDFIPVESLETTMRSP
# B5: CAR-2×NS3a: CAR construct that included an additional copy of NS3a (protein)
# chain: CPPCPMFWVLVVVGGVLACYSLLVTVAFIIFWVKRGRKKLLYIFKQPFMRPVQTTQEEDGCSCRFPEEEEGGCELASGSASGSASMKKKGSVVIVGRINLSGDTAYSQQTRGLEGCQETSQTGRDKNQVEGEVQVVSTATQSFLATSINGVLWTVYHGAGTRTIASPKGPVTQMYTNVDKDLVGWQAPQGSRSLTPCTCGSSDLYLVTRHADVIPVRRRGDSRGSLLSPRPISYLKGSAGGPLLCPAGHAVGIFRAAVSTRGVAKAVDFIPVESLETTMRSPGSSGSSGSSGGKKKGSVVIVGRINLSGDTAYSQQTRGLEGCQETSQTGRDKNQVEGEVQVVSTATQSFLATSINGVLWTVYHGAGTRTIASPKGPVTQMYTNVDKDLVGWQAPQGSRSLTPCTCGSSDLYLVTRHADVIPVRRRGDSRGSLLSPRPISYLKGSAGGPLLCPAGHAVGIFRAAVSTRGVAKAVDFIPVESLETTMRSP
# B6: D1: minimized version of DNCR2 fused to caspase-9 (protein)
# chain: MDDNEAEKLIREAEEAAKDAEEAAERTGDPEVRELARELVRLAKEAAEEVQRNPSSSDVNEALHSIVYAIEAAIFALEAAERTGDPEVRELARELVRLAVEAAEEVQRNPSSRNVEHALMRIVLAIYLAEENLRESGSASGSGGFGDVGALESLRGNADLAYILSMEPCGHCLIINNVNFCRESGLRTRTGSNIDCEKLRRRFSSLHFMVEVKGDLTAKKMVLALLELAQQDHGALDCCVVVILSHGCQASHLQFPGAVYGTDGCPVSVEKIVNIFNGTSCPSLGGKPKLFFIQACGGEQKDHGFEVASTSPEDESPGSNPEPDATPFQEGLRTFDQLAAISSLPTPSDIFVSYSTFPGFVSWRDPKSGSWYVETLDDIFEQWAHSEDLQSLLLRVANAVSVKGIYKQMPGCFNFLRKKLFFKTS
# B7: GNCR1-casp-9: caspase-9 fused to GNCR1 (protein)
# chain: MDIEKLCKKAEEEAKEAQEKADELRQRHPDSQAAEDAEDLANLAVAAVLTACLLAQEHPNADIAKLCIKAASEAAEAASKAAELAQRHPDSQAARDAIKLASQAARAVILAIMLAAENPNADIAKLCIKAASEAAEAASKAAELAQRHPDSQAARDAIKLASQAAEAVERAIWLAAENPNADIAKKCIKAASEAAEEASKAAEEAQRHPDSQKARDEIKEASQKAEEVKERCKSGSASGSGGFGDVGALESLRGNADLAYILSMEPCGHCLIINNVNFCRESGLRTRTGSNIDCEKLRRRFSSLHFMVEVKGDLTAKKMVLALLELAQQDHGALDCCVVVILSHGCQASHLQFPGAVYGTDGCPVSVEKIVNIFNGTSCPSLGGKPKLFFIQACGGEQKDHGFEVASTSPEDESPGSNPEPDATPFQEGLRTFDQLDAISSLPTPSDIFVSYSTFPGFVSWRDPKSGSWYVETLDDIFEQWAHSEDLQSLLLRVANAVSVKGIYKQMPGCFNFLRKKLFFKTS
# Tested on: Jurkat cells
# Assay: Kill switch percent killing in Jurkat cells (flow cytometry)
# Type: cell-based
# Details: for percent killing in the absence of a scaffolded NS3a: danoprevir or grazoprevir treatment, 500 nM; for percent killing, miniaturized DNCR2 designs fused to caspase-9 with homo-oligomerized NS3a scaffolds: co-expressed with CAR-NS3a, CAR-NS3a-NS3a or dimer-NS3a
# Experimental: Kill switch-positive cells (le5) were incubated for 24-48 hours with inducer drug before staining and analysis for death. Conditions were normalized to contain about 50% transduction positive (+) cells by adding untransduced Jurkat or primary T cells in order to get accurate statistics on death.
# Flow cytometry was performed on a Ze5 cytometer (Biorad). To determine expression of markers, between 1×10^5-2×10^5 total cells were transferred to a U-bottom 96 well culture dish (Corning). Cells were washed twice with Cell Staining Buffer (BioLegend), then stained with Zombie Violet (1:1000, BioLegend) and ROR1-FC for ROR1-specific CAR constructs (20 min at room temperature). Cells were washed twice in Cell Staining Buffer, then stained with Annexin V-PE (BD) in 1× Annexin V Binding Buffer (BD) for 15 min at room temperature. After staining, cells were washed once with Annexin V Binding Buffer, resuspended in AnneinV Binding Buffer and immediately analyzed.
# Flow cytometry data was analyzed using FlowJo 10 (Tree Star). Percent killing was calculated by gating on live cells, then calculating 100*((percent GFP positive DMSO condition)−(percent GFP positive drug condition))/(percent GFP positive DMSO condition).
# We first tested for drug-induced death of Jurkat cells by fusing NS3a and DNCR2 separately to the catalytic domain of caspase-9 (NCDC). The small molecule inducible homodimer FKBP-F36V (iCasp9), which is dimerized by AP1903 (rimiducid) and the inducible heterodimer FKBP/rapamycin/FRB dimer (rapaCasp9) were used as controls. Briefly, Jurkat cells expressing NCDC, iCasp9, or rapaCasp9 were exposed to danoprevir, rimiducid or rapamycin, respectively, for 24 hours and analyzed by flow cytometry with gating set to measure killing in the top about 10% of cells expressing the highest amount of the GFP kill switch transduction marker.
# To evaluate the kill switch designs of FIG. 8A, constructs were expressed in Jurkat cells, treated with 500 nM danoprevir (DNCR2-casp-9) or 500 nM grazoprevir (GNCR1-casp-9) and cell death measured by percent killing as described herein above.
# The miniaturized versions of DNCR2, D1 and D9, were fused to caspase-9 and co-expressed in Jurkat cells with homo-oligomerized NS3a scaffolds. We also evaluated a CAR construct that included an additional copy of NS3a (CAR-2×NS3a). The original DNCR2-casp-9 was used as a control. Jurkat cells expressing different DNCR2 variants fused to caspase-9 along with CAR-NS3a, CAR-NS3a-NS3a, or dimer-NS3a were treated with 500 nM danoprevir and cell death was measured by percent killing as described herein above.
# We explored the ability of other human killing domains to induce cell death in Jurkat and primary human T cells. We fused FKBP-F36V to a panel of killing domains that included caspase-9 D330A, caspase-9, caspase-1, caspase-4, and the necroptosis-inducing protein RIPK3. Briefly, Jurkat and primary human CD4+/CD8+ T cells expressing FKBP(F36V)-fused killing domains were treated with 10 nM rimiducid and cell death was measured by percent killing as described herein above.
molecule,measurement,setting,value
B1,percent killing in the absence of a scaffolded NS3a,,did not induce Jurkat death
B2,"percent killing, NS3a scaffold with GNCR1-casp-9",500 nM grazoprevir,modest death
B3,"percent killing, miniaturized DNCR2 designs fused to caspase-9 with homo-oligomerized NS3a scaffolds",500 nM danoprevir,comparable Jurkat death as the original DNCR2-casp-9
B4,"percent killing, NS3a scaffold with DNCR2-casp-9",500 nM danoprevir,comparable killing to iCasp9
B5,"percent killing, miniaturized DNCR2 designs fused to caspase-9 with homo-oligomerized NS3a scaffolds",500 nM danoprevir,increased killing further
B6,"percent killing, miniaturized DNCR2 designs fused to caspase-9 with homo-oligomerized NS3a scaffolds",500 nM danoprevir,comparable Jurkat death as the original DNCR2-casp-9
B7,percent killing in the absence of a scaffolded NS3a,,did not induce Jurkat death

# — patent publication US20250268938A1, “SMALL MOLECULE-REGULATED CELL SIGNALING EXPRESSION SYSTEM” (Outpace Bio, Inc., priority 2021, published 2025)
